According to the Immune Epitope Database (IEDB):
pIC50, pKd: −log10 of the molar value. Each block holds one sequence with its values, some of them ahead of it.

Columns and labels:
HLA-B*51:01 [1] = experiment: IEDB peptide-MHC binding, purified MHC/direct/fluorescence; filed as Kd, often an IC50 or EC50 that approximates it; ≥ and ≤ were set here for values at or beyond the usual limits of such assays
HLA-B*07:02 [2] = experiment: as above
HLA-B*15:09 = experiment: as above
HLA-B*39:01 [3] = experiment: IEDB peptide-MHC binding, purified MHC/competitive/fluorescence; filed as Kd, often an IC50 or EC50 that approximates it; ≥ and ≤ were set here for values at or beyond the usual limits of such assays
HLA-A*01:01 = experiment: IEDB peptide-MHC binding, purified MHC/direct/fluorescence; filed as Kd, often an IC50 or EC50 that approximates it; ≥ and ≤ were set here for values at or beyond the usual limits of such assays
HLA-A*02:01 = experiment: as above
HLA-A*03:01 [4] = experiment: as above
HLA-A*11:01 = experiment: as above
HLA-A*69:01 = experiment: as above
HLA-B*15:01 [5] = experiment: as above
HLA-B*15:17 [6] = experiment: as above; settings: source organism: Influenza A virus (A/duck/Hokkaido/1130/01(H1N1))
HLA-B*18:01 = experiment: as above
HLA-B*27:05 = experiment: as above
HLA-B*40:01 = experiment: as above
HLA-B*46:01 = experiment: as above
HLA-B*48:01 = experiment: as above
HLA-B*57:01 = experiment: as above
HLA-B*58:01 = experiment: as above
HLA-A*02:03 = experiment: IEDB peptide-MHC binding, purified MHC/competitive/fluorescence; filed as Kd, often an IC50 or EC50 that approximates it; ≥ and ≤ were set here for values at or beyond the usual limits of such assays; settings: source organism: Influenza A virus (A/81/HO)
HLA-A*31:01 [7] = experiment: as above
HLA-B*39:01 [8] = experiment: IEDB peptide-MHC binding, purified MHC/direct/fluorescence; filed as Kd, often an IC50 or EC50 that approximates it; ≥ and ≤ were set here for values at or beyond the usual limits of such assays
HLA-A*02:11 = experiment: as above; settings: source organism: Rickettsia prowazekii
HLA-A*02:19 = experiment: as above; settings: source organism: Rickettsia prowazekii
HLA-A*03:01 [9] = experiment: IEDB peptide-MHC binding, purified MHC/competitive/fluorescence; filed as Kd, often an IC50 or EC50 that approximates it; ≥ and ≤ were set here for values at or beyond the usual limits of such assays
HLA-A*26:01 [10] = experiment: IEDB peptide-MHC binding, purified MHC/direct/fluorescence; filed as Kd, often an IC50 or EC50 that approximates it; ≥ and ≤ were set here for values at or beyond the usual limits of such assays; settings: source organism: Bacillus licheniformis
HLA-A*31:01 [11] = experiment: as above
HLA-B*08:01 [12] = experiment: as above
HLA-B*15:17 [13] = experiment: IEDB peptide-MHC binding, purified MHC/competitive/fluorescence; filed as Kd, often an IC50 or EC50 that approximates it; ≥ and ≤ were set here for values at or beyond the usual limits of such assays
HLA-B*08:01 [14] = experiment: IEDB peptide-MHC binding, purified MHC/competitive/radioactivity; filed as Kd, often an IC50 or EC50 that approximates it; ≥ and ≤ were set here for values at or beyond the usual limits of such assays; settings: source organism: Dengue virus 4 Philippines/H241/1956
HLA-B*15:01 [15] = experiment: IEDB peptide-MHC binding, purified MHC/competitive/fluorescence; filed as Kd, often an IC50 or EC50 that approximates it; ≥ and ≤ were set here for values at or beyond the usual limits of such assays; settings: source organism: Salmonella enterica subsp. enterica serovar Typhi
HLA-A*29:02 = experiment: IEDB peptide-MHC binding, purified MHC/direct/fluorescence; filed as Kd, often an IC50 or EC50 that approximates it; ≥ and ≤ were set here for values at or beyond the usual limits of such assays
HLA-B*44:02 = experiment: as above
HLA-B*07:02 [16] = experiment: IEDB peptide-MHC binding, purified MHC/competitive/fluorescence; ≥ and ≤ were set here for values at or beyond the usual limits of such assays; settings: source organism: Sudan ebolavirus
HLA-A*24:03 = experiment: IEDB peptide-MHC binding, purified MHC/direct/fluorescence; filed as Kd, often an IC50 or EC50 that approximates it; ≥ and ≤ were set here for values at or beyond the usual limits of such assays; settings: source organism: Convict Creek 107 virus
HLA-A*68:02 = experiment: as above; settings: source organism: Convict Creek 107 virus
HLA-A*26:01 [17] = experiment: IEDB peptide-MHC binding, purified MHC/competitive/fluorescence; filed as Kd, often an IC50 or EC50 that approximates it; ≥ and ≤ were set here for values at or beyond the usual limits of such assays; settings: source organism: Orthohantavirus sinnombreense
HLA-B*27:03 = experiment: as above; settings: source organism: Orthohantavirus sinnombreense
HLA-B*51:01 [18] = experiment: as above; settings: source organism: Orthohantavirus sinnombreense
[19] = source organism: Giardia lamblia ATCC 50803
[20] = source organism: Influenza A virus (A/duck/Hokkaido/1130/01(H1N1))
[21] = source organism: Vibrio parahaemolyticus AQ3810
[22] = source organism: Rickettsia prowazekii
[23] = source organism: Escherichia coli O139:H28 str. E24377A
[24] = source organism: Bacillus anthracis
[25] = source organism: Bacillus licheniformis
[26] = source organism: Salmonella enterica subsp. enterica serovar Typhi
[27] = source organism: Mycolicibacterium gilvum
[28] = source organism: Shigella boydii
[29] = source organism: Mammarenavirus lassaense
[30] = source organism: Orthohantavirus andesense

Sequence: AVSRGTAKL
pKd (HLA-B*51:01 [1]; source organism: Alkhumra hemorrhagic fever virus): ≤ 4.70

Sequence: EALAMCLPY
pKd (HLA-B*07:02 [2]; [19]): 5.28
pKd (HLA-B*51:01 [1]; [19]): ≤ 4.70

Sequence: EHFLGIWGL
pKd (HLA-B*15:09; source organism: Bacillus cereus H3081.97): 7.03
pKd (HLA-B*39:01 [3]; source organism: Bacillus thuringiensis str. Al Hakam): 7.75

Sequence: ELRSRYWAI
pKd (HLA-A*01:01; [20]): ≤ 4.70
pKd (HLA-A*02:01; [20]): ≤ 4.70
pKd (HLA-A*03:01 [4]; [20]): ≤ 4.70
pKd (HLA-A*11:01; [20]): ≤ 4.70
pKd (HLA-A*69:01; [20]): 6.82
pKd (HLA-B*07:02 [2]; [20]): ≤ 4.70
pKd (HLA-B*15:01 [5]; [20]): ≤ 4.70
pKd (HLA-B*15:17 [6]): ≤ 4.70
pKd (HLA-B*18:01; [20]): 5.61
pKd (HLA-B*27:05; [20]): ≤ 4.70
pKd (HLA-B*40:01; [20]): ≤ 4.70
pKd (HLA-B*46:01; [20]): ≤ 4.70
pKd (HLA-B*48:01; [20]): ≤ 4.70
pKd (HLA-B*51:01 [1]; [20]): ≤ 4.70
pKd (HLA-B*57:01; [20]): ≤ 4.70
pKd (HLA-B*58:01; [20]): ≤ 4.70
pKd (HLA-A*02:03): ≤ 4.70
pKd (HLA-A*31:01 [7]; source organism: Influenza A virus (A/81/HO)): ≤ 4.70

Sequence: EQYGPRHTL
pKd (HLA-B*15:09; [21]): 6.74
pKd (HLA-B*39:01 [8]; [21]): 8.40

Sequence: FGSGWTWVV
pKd (HLA-A*02:01; [22]): 6.17
pKd (HLA-A*02:11): ≥ 9.00
pKd (HLA-A*02:19): ≥ 9.00
pKd (HLA-A*69:01; [22]): 5.93

Sequence: FHGAKEIAL
pKd (HLA-B*39:01 [8]; source organism: Influenza A virus H3N2): 6.76

pKd (HLA-A*03:01 [9]; [23]): 5.80
pKd (HLA-A*31:01 [7]; [23]): 6.70
Sequence: GINWKHPKR

Sequence: GTGAGVPSK
pKd (HLA-A*03:01 [4]; [24]): 5.94
pKd (HLA-A*11:01; [24]): 7.95
pKd (HLA-A*31:01 [7]; source organism: Bacillus anthracis str. A0488): 6.19

Sequence: KTIECSKEL
pKd (HLA-A*01:01; [25]): ≤ 4.70
pKd (HLA-A*02:01; [25]): 6.63
pKd (HLA-A*03:01 [4]; [25]): ≤ 4.70
pKd (HLA-A*11:01; [25]): ≤ 4.70
pKd (HLA-A*26:01 [10]): ≤ 4.70
pKd (HLA-A*31:01 [11]; [25]): 5.25
pKd (HLA-A*69:01; [25]): ≤ 4.70
pKd (HLA-B*07:02 [2]; [25]): ≤ 4.70
pKd (HLA-B*08:01 [12]; [25]): ≤ 4.70
pKd (HLA-B*15:01 [5]; [25]): 6.33
pKd (HLA-B*27:05; [25]): ≤ 4.70
pKd (HLA-B*40:01; [25]): ≤ 4.70
pKd (HLA-B*58:01; [25]): 6.55
pKd (HLA-B*15:17 [13]; [25]): 8.00

Sequence: MPVMKRYSA
pKd (HLA-B*51:01 [1]; source organism: dengue virus type 4): ≤ 4.70
pKd (HLA-B*08:01 [14]): 8.08

Sequence: MTDAIRTLK
pKd (HLA-A*03:01 [9]; [26]): 6.87
pKd (HLA-A*31:01 [7]; [26]): 5.64
pKd (HLA-B*15:01 [15]): ≤ 4.70

pKd (HLA-A*01:01; [27]): ≤ 4.70
pKd (HLA-A*02:01; [27]): ≤ 4.70
pKd (HLA-A*03:01 [4]; [27]): ≤ 4.70
pKd (HLA-A*29:02; [27]): ≤ 4.70
pKd (HLA-A*31:01 [11]; [27]): ≤ 4.70
pKd (HLA-A*69:01; [27]): ≤ 4.70
pKd (HLA-B*15:01 [5]; [27]): ≤ 4.70
pKd (HLA-B*18:01; [27]): ≤ 4.70
pKd (HLA-B*27:05; [27]): ≤ 4.70
pKd (HLA-B*39:01 [8]; source organism: Mycolicibacterium gilvum PYR-GCK): 5.17
pKd (HLA-B*40:01; [27]): ≤ 4.70
pKd (HLA-B*44:02; [27]): ≤ 4.70
pKd (HLA-B*46:01; [27]): ≤ 4.70
pKd (HLA-B*48:01; [27]): ≤ 4.70
pKd (HLA-B*57:01; [27]): ≤ 4.70
pKd (HLA-B*58:01; [27]): ≤ 4.70
Sequence: PHDPDFLVL

Sequence: PLSRLFYPK
pKd (HLA-A*03:01 [4]; [28]): 6.19
pKd (HLA-A*11:01; [28]): 6.89
pKd (HLA-A*31:01 [7]; [28]): 7.13

Sequence: RPSSSQIPS
pIC50 (HLA-B*07:02 [16]): 4.96

Sequence: SHGIDVTDL
pKd (HLA-A*01:01; [29]): ≤ 4.70
pKd (HLA-A*02:01; [29]): ≤ 4.70
pKd (HLA-A*03:01 [4]; [29]): ≤ 4.70
pKd (HLA-A*11:01; [29]): ≤ 4.70
pKd (HLA-A*29:02; [29]): ≤ 4.70
pKd (HLA-A*31:01 [11]; [29]): ≤ 4.70
pKd (HLA-A*69:01; [29]): ≤ 4.70
pKd (HLA-B*07:02 [2]; [29]): ≤ 4.70
pKd (HLA-B*15:01 [5]; [29]): ≤ 4.70
pKd (HLA-B*15:09; [29]): ≤ 4.70
pKd (HLA-B*18:01; [29]): ≤ 4.70
pKd (HLA-B*27:05; [29]): ≤ 4.70
pKd (HLA-B*39:01 [8]; [29]): ≤ 4.70
pKd (HLA-B*40:01; [29]): ≤ 4.70
pKd (HLA-B*44:02; [29]): ≤ 4.70
pKd (HLA-B*46:01; [29]): ≤ 4.70
pKd (HLA-B*48:01; [29]): ≤ 4.70
pKd (HLA-B*57:01; [29]): ≤ 4.70
pKd (HLA-B*58:01; [29]): ≤ 4.70

Sequence: TVDSLSPLK
pKd (HLA-A*03:01 [4]; [19]): 6.44
pKd (HLA-A*11:01; [19]): 7.91
pKd (HLA-A*31:01 [7]; [19]): ≤ 4.70

Sequence: YLQAKSQVL
pKd (HLA-A*01:01; [30]): ≤ 4.70
pKd (HLA-A*03:01 [4]; [30]): ≤ 4.70
pKd (HLA-A*11:01; [30]): ≤ 4.70
pKd (HLA-A*24:03): ≤ 4.70
pKd (HLA-A*29:02; [30]): ≤ 4.70
pKd (HLA-A*31:01 [11]; [30]): ≤ 4.70
pKd (HLA-A*68:02): ≤ 4.70
pKd (HLA-A*69:01; [30]): ≤ 4.70
pKd (HLA-B*08:01 [12]; [30]): 6.33
pKd (HLA-B*18:01; [30]): ≤ 4.70
pKd (HLA-B*27:05; [30]): ≤ 4.70
pKd (HLA-B*40:01; [30]): ≤ 4.70
pKd (HLA-B*46:01; [30]): ≤ 4.70
pKd (HLA-B*57:01; [30]): ≤ 4.70
pKd (HLA-B*58:01; [30]): ≤ 4.70
pKd (HLA-A*26:01 [17]): ≤ 4.70
pKd (HLA-B*15:17 [13]; source organism: Orthohantavirus sinnombreense): ≤ 4.70
pKd (HLA-B*27:03): ≤ 4.70
pKd (HLA-B*51:01 [18]): ≤ 4.70

Sequence: YRYEFNNDW
pKd (HLA-B*15:09; source organism: Yersinia pestis CA88-4125): ≤ 4.70
pKd (HLA-B*39:01 [3]; source organism: Yersinia pseudotuberculosis IP 31758): 6.00
